Laboratory results from US10344068B2, “Natriuretic polypeptides” (priority 2011, dated 2019).
Ends that are not written are not given here.

Columns and labels:
Assay type in all cases: cell-based
[1] = tested on: Human cardiac fibroblasts; assay: cGMP production in human cardiac fibroblasts (competitive RIA cGMP kit); settings: human cardiac fibroblasts (CFs); 10^-6 M, 10^-8 M or 10^-10 M of NP or cANG for 10 minutes
Description: cANG was custom-synthesized to have the sequence set forth in FIG. 4 and confirmed by high performance liquid chromatography and mass spectroscopy to have a molecular weight of 3080.6 Da. Human cardiac fibroblasts (CFs; ScienCell, San Diego, Calif.) were cultured in the manufacturer's fibroblast media (ScienCell, San Diego, Calif.) supplemented with fibroblast growth serum (FGS), fetal bovine serum (FBS), and Pen/Strep. Cells were treated at 80-90% confluency. Only cell passages 1 through 4 were used for experiments. To perform a cyclic GMP assay, the cells were treated as described previously (Huntley et al., J. Cell. Physiol., 209(3):943-9 (2006)). Briefly, cells were incubated in Hank's balanced salt solution (Invitrogen, Carlsbad, Calif.) containing 20 mmol/L N-[2-hydroxyethyl]piperazine-N′[2-ethanesulfonic acid], 0.1% bovine serum albumin, and 0.5 mmol/L 3-isobutyl-1-methylzanthine (Sigma, St. Louis, Mo.). Treated cells received 10^−6 M, 10^−8M, or 10^−10 M of NP or cANG for 10 minutes. Cells were lysed in 6% TCA and sonicated for 10 minutes. The samples were ether extracted four times in four volumes of ether, dried, and reconstituted in […] of cGMP assay buffer.
The samples were assayed using a competitive RIA cGMP kit (Perkin-Elmer, Boston, Mass.). Briefly, samples and standards were incubated with […] anti-human cGMP polyclonal antibody and I^125-antigen for 18 hours. Cyclic GMP assay buffer was added to the samples, and they were centrifuged for 20 minutes at 2500 rpm. The free fraction was aspirated off, and the bound fraction was counted and concentrations determined. Samples were corrected for dilution factors and protein concentration, and values were expressed as pmoles/mL.

NPR-A (GC-A) = target: T1, NPR-A (GC-A) (Homo sapiens, UniProt P16066); assay: cGMP production in HEK 293 cells stably transfected to express NPR-A (GC-A); settings: NPR-A+ HEK 293 cells; 10^-10 M, 10^-8 M or 10^-6 M for 10 minutes
T1 construct: expressed in transfected cells; host or cells: HEK 293
T1 sequence (P16066 33-1061): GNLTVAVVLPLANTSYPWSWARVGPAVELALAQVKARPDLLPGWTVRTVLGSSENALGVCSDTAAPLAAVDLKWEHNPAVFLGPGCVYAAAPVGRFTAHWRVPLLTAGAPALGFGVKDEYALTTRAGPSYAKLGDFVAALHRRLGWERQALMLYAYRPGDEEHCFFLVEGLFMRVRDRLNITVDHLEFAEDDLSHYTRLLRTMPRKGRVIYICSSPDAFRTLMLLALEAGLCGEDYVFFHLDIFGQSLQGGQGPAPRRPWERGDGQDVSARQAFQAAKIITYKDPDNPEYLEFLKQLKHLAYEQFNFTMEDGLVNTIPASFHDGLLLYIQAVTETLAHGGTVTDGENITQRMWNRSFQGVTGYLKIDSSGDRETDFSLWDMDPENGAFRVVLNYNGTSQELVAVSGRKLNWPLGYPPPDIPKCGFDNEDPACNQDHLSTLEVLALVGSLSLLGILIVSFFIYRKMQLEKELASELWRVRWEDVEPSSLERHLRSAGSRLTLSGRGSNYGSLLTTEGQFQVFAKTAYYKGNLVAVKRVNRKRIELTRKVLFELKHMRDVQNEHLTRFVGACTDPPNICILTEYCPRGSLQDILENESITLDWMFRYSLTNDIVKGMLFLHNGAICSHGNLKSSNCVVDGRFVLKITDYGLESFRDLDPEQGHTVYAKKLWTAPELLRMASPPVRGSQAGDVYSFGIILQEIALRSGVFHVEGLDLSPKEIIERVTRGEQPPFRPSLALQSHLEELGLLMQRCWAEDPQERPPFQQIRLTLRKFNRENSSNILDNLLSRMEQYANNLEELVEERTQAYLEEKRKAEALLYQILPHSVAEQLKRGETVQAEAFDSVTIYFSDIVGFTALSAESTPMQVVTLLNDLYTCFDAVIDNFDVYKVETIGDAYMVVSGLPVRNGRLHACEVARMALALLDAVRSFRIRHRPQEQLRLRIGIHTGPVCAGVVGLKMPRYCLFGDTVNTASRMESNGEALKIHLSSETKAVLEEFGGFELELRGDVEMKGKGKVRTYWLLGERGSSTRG
Description: (§1) HEK 293 cells were stably transfected to express either NPR-A (GC-A) or NPR-B (GC-B) using Lipofectamine (Invitrogen, Grand Island, N.Y.). Transfected cells were maintained in Dulbecco's modified Eagle's medium supplemented with 10% fetal bovine serum, 100 U/mL penicillin, 100 U/mL streptomycin, and 250 μg/mL G418. The reagents were obtained from Invitrogen (Grand Island, N.Y.).
(§2) The following was performed to carry out cell stimulation and cGMP assays. Cells were plated in 6-well plates and treated as described elsewhere (Tsuruda et al., Circulation Research, 91:1127-1134 (2002)). Briefly, cells were incubated in Hank's balanced salt solution (Invitrogen, Carlsbad, Calif.) containing 20 mmol/L N-[2-hydroxyethyl]piperazine-N′[2-ethanesulfonic acid], 0.1% bovine serum albumin, and 0.5 mmol/L 3-isobutyl-1-methylzanthine (Sigma, St. Louis, Mo.). Treated cells received 10^−10 M, 10^−8M, or 10^−6 M of either BNP-Ang1-7 or Ang1-7BNP for 10 minutes. Cells were lysed in 300 μL 6% TCA and sonicated for 10 minutes. The samples were ether extracted four times in 4 volumes of ether, dried, and reconstituted in 500 μL cGMP assay buffer. The samples were assayed using a competitive RIA cGMP kit (Perkin-Elmer, Boston, Mass.) as described elsewhere (Steiner et al., J. Biol. Chem., 247:1106-1113 (1972)). Samples were corrected for dilution factors and protein concentration, and values were expressed as pmol cGMP/well. There was no cross-reactivity with ANP, BNP, CNP, and Endothelin-1, and less than 0.001 percent cross-reactivity with cAMP, GMP, GDP, ATP, and GTP.

NPR-B (GC-B) = target: T2, NPR-B (GC-B) (Homo sapiens, UniProt P20594); assay: cGMP production in HEK 293 cells stably transfected to express NPR-B (GC-B); settings: NPR-B+ HEK 293 cells; 10^-10 M, 10^-8 M or 10^-6 M for 10 minutes
T2 construct: expressed in transfected cells; host or cells: HEK 293
T2 sequence (P20594 23-1047): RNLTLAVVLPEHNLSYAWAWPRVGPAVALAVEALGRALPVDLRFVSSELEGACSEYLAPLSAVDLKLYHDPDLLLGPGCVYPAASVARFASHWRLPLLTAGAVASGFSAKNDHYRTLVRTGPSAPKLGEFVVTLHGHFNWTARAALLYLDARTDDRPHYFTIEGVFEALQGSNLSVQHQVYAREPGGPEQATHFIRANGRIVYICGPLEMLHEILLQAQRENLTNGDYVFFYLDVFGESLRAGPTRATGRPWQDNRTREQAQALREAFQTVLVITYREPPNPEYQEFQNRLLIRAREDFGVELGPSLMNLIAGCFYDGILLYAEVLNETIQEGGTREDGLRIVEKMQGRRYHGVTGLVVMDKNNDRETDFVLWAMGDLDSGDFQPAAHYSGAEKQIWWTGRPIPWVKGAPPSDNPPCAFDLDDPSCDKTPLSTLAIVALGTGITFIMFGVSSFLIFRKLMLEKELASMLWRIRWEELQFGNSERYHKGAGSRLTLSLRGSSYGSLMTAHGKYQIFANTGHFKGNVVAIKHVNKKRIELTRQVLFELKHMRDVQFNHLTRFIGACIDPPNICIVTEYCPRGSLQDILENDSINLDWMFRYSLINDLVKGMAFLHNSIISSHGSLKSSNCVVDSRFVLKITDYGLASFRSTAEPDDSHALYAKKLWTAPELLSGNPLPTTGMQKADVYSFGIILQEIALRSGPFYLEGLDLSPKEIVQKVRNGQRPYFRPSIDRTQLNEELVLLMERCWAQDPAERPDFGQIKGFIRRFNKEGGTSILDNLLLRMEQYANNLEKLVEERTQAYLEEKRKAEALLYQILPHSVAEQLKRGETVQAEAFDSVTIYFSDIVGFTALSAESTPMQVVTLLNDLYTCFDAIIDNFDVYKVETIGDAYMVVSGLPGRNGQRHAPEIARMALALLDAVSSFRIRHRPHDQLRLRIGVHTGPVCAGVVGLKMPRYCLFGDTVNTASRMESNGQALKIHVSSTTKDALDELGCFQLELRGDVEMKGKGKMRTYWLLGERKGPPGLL
Description: as §1, §2

Compound	cGMP production [1]	cGMP production (NPR-A (GC-A))	cGMP production (NPR-B (GC-B))
CC[C@H](C)[C@@H]1NC(=O)[C@H](CCCNC(=N)N)NC(=O)[C@H](CC(=O)O)NC(=O)[C@H](CCSC)NC(=O)[C@H](CCCNC(=N)N)NC(=O)CNC(=O)CNC(=O)[C@H](Cc2ccccc2)NC(=O)[C@@H](NC(=O)[C@H](CO)NC(=O)[C@H](CO)NC(=O)[C@H](CCCNC(=N)N)NC(=O)[C@H](CCCNC(=N)N)NC(=O)[C@H](CC(C)C)NC(=O)[C@@H](N)CO)CSSC[C@@H](C(=O)N[C@@H](CC(N)=O)C(=O)N[C@@H](CO)C(=O)N[C@@H](Cc2ccccc2)C(=O)N[C@@H](CCCNC(=N)N)C(=O)N[C@@H](Cc2ccc(O)cc2)C(=O)O)NC(=O)CNC(=O)[C@H](CC(C)C)NC(=O)CNC(=O)[C@H](CO)NC(=O)[C@H](CCC(N)=O)NC(=O)[C@H](C)NC(=O)CNC1=O [ANP, atrial natriuretic peptide]	resulted in cGMP production	–	–
Ang1-7BNP: chimeric polypeptide containing an N-terminal Ang-(1-7) and a ring structure and C-terminus of BNP	–	induced cGMP production	Neither BNP-Ang1-7 nor Ang1-7BNP induced cGMP production
B-type natriuretic peptide [BNP]	resulted in cGMP production	induced cGMP production	Minimal cGMP production
BNP-Ang1-7: chimeric polypeptide containing an N-terminus and ring structure of BNP and a C-terminal Ang-(1-7) (SPKMVQGSGCFGRKMDRISSSSGLGCDRVYIHP; not fully specified (bridges); cysteine pairing not given here)	–	induced cGMP production	Neither BNP-Ang1-7 nor Ang1-7BNP induced cGMP production
C-type natriuretic peptide (GLSKGCFGLKLDRIGSMSGLGC) [CNP]	resulted in cGMP production	–	–
angiotensin-(1-7) [Ang1-7]	–	did not induce cGMP production	did not induce cGMP production
cANG: chimeric polypeptide containing an N-terminus and ring structure of CNP and a C-terminal Ang-(1-7) (GLSKGCFGLKLDRIGSMSGLGCDRVYIHP; not fully specified (bridges); cysteine pairing not given here)	resulted in cGMP production	–	–
